In the supplement of paper PMC10567573:

B1: PRPH (parent)
chain: DEIEFLKKLHEEELRDLQVSVESQ
B2: CCDC6 (parent)
chain: TLFKKIQALQKEKETLAVNYEKEE

Variants of: B1
Assay: protein stability index of a GFP-peptide fusion (GPS, HEK-293T) (PSI 1-6); higher = more stable
Conditions: c terminus: a fixed tail appended
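Note: lentivirally expressed fusions sorted by FACS into six bins by GFP to DsRed ratio, PSI derived from sequencing read proportions per bin multiplied by bin number.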

Protein stability index: each site, then its substitutions
S23: T 4.95; N 5.04; V 4.59; P 4.71; L 4.54; W 3.45; G 5.13; K 4.5; I 3.8; R 4.62; M 3.96; H 4.94; Y 4.71; Q 4.11
Q24: H 4.52; N 4.92; L 4.66; R 4.22; Y 3.64; G 4.48; A 4.57; I 4.35; T 4.76; K 4.65; V 4.23; P 3.96; M 4.64; C 3.37; E 4.57; S 4.26; W 3.85; D 4.46; F 3.91

Variants of: B2
Assay: as above
Conditions: c terminus: a fixed tail appended

Protein stability index, by site and new letter:
K11: L 3.05; G 3.71; H 3.28; Q 3.21; N 3.55; P 4.1; C 3.12; R 2.59; E 3.69; D 3.79; A 3.23; W 2.28; Y 2.66; V 2.81; T 2.89; F 2.94; M 2.78; S 3.36; I 2.85
T1: E 3.67; S 2.92; L 2.38; A 3.85; Y 3.01; M 2.51; P 3.71; F 2.64; W 1.88; N 4.12; K 3.06; R 3.04; Q 2.84; C 3.34; D 4.01; I 2.69; H 3.48; V 3.12; G 3.73
I6: Q 4.28; T 4.75; E 5.39; M 4.32; W 3.4; R 4.79; A 4.59; C 4.44; L 3.59; P 4.78; K 4.92; S 4.81; G 5.06; D 5.34; H 4.17; V 3.85; Y 3.93; F 3.99; N 4.36
E14: V 2.6; G 3.1; C 2.89; A 2.6; N 3.15; I 2.25; M 2.27; Y 2.05; Q 3.11; S 2.46; W 2.03; F 2.16; K 2.94; D 3.25; H 2.58; T 2.55; R 2.6; L 1.97; P 2.64
K13: V 1.84; G 3.73; I 2.2; T 3.4; M 2.65; R 3.49; Y 2.09; L 1.93; A 2.58; D 3.96; H 2.81; W 1.91; E 3.78; Q 3.13; N 3.17; C 2.28; P 3.51; S 3.23
F3: K 4.78; W 2.26; S 4.62; E 5.42; G 5.23; L 3.08; I 3.51; C 3.62; N 4.59; P 5.44; Y 3.67; Q 4.78; V 3.76; T 5.1; M 3.41; A 4.68; D 5.28; R 4.38; H 4.9
L16: S 4.02; Q 4.1; I 2.69; E 4.07; P 3.44; H 3.91; N 3.6; D 3.88; V 3.23; C 3.05; A 3.32; R 3.02; G 4.09; K 2.83; F 2.81; T 3.49; M 3.24
T15: R 2.88; N 3.23; P 3.56; A 2.97
